B1: BAR/IMD domain-containing adapter protein 2 (Homo sapiens), Q9UQB8-4 (parent)
chain: MSLSRSEEMHRLTENVYKTIMEQFNPSLRNFIAMGKNYEKALAGVTYAAKGYFDALVKMGELASESQGSKELGDVLFQMAEVHRQIQNQLEEMLKSFHNELLTQLEQKVELDSRYLSAALKKYQTEQRSKGDALDKCQAELKKLRKKSQGSKNPQKYSDKELQYIDAISNKQGELENYVSDGYKTALTEERRRFCFLVEKQCAVAKNSAAYHSKGKELLAQKLPLWQQACADPSKIPERAVQLMQQVASNGATLPSALSASKSNLVISDPIPGAKPLPVPPELAPFVGRMSAQESTPIMNGVTGPDGEDYSPWADRKAAQPKSLSPPQSQSKLSDSYSNTLPVRKSVTPKNSYATTENKTLPRSSSMAAGLERNGRMRVKAIFSHAAGDNSTLLSFKEGDLITLLVPEARDGWHYGESEKTKMRGWFPFSYTRVLDSDGSDRLHMSLQQGKSSSTGNLLDKDDLAIPPPDYGAASRAFPAQTASGFKQRPYSVAVPAFSQGLDDYGARSMSSGSGTLVSTV

Variants of: B1
Conditions: with rac1_human RAC1, P63000

Variant | effect of a mutation on the interaction
MSLSRSEEMHELTENVYKTIMEQFNPSLRNFIAMGKNYEKALAGVTYAAKGYFDALVKMGELASESQGSKELGDVLFQMAEVHRQIQNQLEEMLKSFHNELLTQLEQKVELDSRYLSAALKKYQTEQRSKGDALDKCQAELKELRKKSQGSKNPQKYSDKELQYIDAISNKQGELENYVSDGYKTALTEERRRFCFLVEKQCAVAKNSAAYHSKGKELLAQKLPLWQQACADPSKIPERAVQLMQQVASNGATLPSALSASKSNLVISDPIPGAKPLPVPPELAPFVGRMSAQESTPIMNGVTGPDGEDYSPWADRKAAQPKSLSPPQSQSKLSDSYSNTLPVRKSVTPKNSYATTENKTLPRSSSMAAGLERNGRMRVKAIFSHAAGDNSTLLSFKEGDLITLLVPEARDGWHYGESEKTKMRGWFPFSYTRVLDSDGSDRLHMSLQQGKSSSTGNLLDKDDLAIPPPDYGAASRAFPAQTASGFKQRPYSVAVPAFSQGLDDYGARSMSSGSGTLVSTV [R11E;K143E] | disrupting interaction

From IntAct's records for PubMed 19171758
